Molecular target: T1, Myc-tagged NLRP6 (ΔPYD)
T1 chain: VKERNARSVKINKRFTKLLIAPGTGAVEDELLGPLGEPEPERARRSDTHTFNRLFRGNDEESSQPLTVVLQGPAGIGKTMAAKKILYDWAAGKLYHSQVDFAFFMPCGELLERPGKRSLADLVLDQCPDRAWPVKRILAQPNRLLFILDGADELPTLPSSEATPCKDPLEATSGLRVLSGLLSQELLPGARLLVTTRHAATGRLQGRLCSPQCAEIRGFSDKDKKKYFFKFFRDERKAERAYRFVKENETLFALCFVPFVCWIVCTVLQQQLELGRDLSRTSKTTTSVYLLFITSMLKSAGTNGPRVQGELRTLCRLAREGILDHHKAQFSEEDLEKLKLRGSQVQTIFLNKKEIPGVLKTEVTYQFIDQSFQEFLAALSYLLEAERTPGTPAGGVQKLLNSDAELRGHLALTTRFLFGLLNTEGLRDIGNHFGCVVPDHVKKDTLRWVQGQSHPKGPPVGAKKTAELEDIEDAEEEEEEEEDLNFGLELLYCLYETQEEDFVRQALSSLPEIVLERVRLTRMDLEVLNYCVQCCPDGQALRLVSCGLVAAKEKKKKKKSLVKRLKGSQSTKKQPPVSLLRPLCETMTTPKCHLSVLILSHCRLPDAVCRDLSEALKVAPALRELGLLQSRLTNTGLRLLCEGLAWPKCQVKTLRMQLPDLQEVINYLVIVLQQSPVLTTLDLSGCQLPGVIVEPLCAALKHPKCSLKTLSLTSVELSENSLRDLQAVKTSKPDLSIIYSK

B1: FLAG-tagged iTie (natural protein)
chain: MGVFQILMKNKELIPLAFFISVAATGATSFALYALKKTDVVIDRKRNPEPWEMVDPTQPQKLITINQQWKPVEELQKVRRATR
A Kd of 88 nM was found for B1 in this work.
